Test results reported in patent publication US20250188154A1.
Like-named read-outs stand apart in the source and are kept apart here.

What was measured:
[1] = target: SARS-CoV-2 Spike-2P stabilized S ectodomain trimer (SARS-CoV-2) (UniProt P0DTC2)
[2] = target: SARS-CoV-2 spike on live virus (Isolate USA-WA1/2020) (SARS-CoV-2) (UniProt P0DTC2); assay: cell-based or functional assay
[3] = target: SARS-CoV-2 Spike-2P stabilized S ectodomain trimer (SARS-CoV-2) (UniProt P0DTC2); assay: ACE2 blocking, ELISA-based assay (Genscript)
[4] = target: SARS-CoV-2 2AA MA virus spike (SARS-CoV-2) (UniProt P0DTC2); assay: cell-based or functional assay
[5] = target: SARS-CoV-2 B.1.1.7 live virus spike (SARS-CoV-2) (UniProt P0DTC2); assay: cell-based or functional assay
[6] = target: SARS-CoV-2 B.1.351 live virus spike (SARS-CoV-2) (UniProt P0DTC2); assay: cell-based or functional assay

Substance | IC50 [1] [µg/mL] | IC80 [1] [µg/mL] | Bioqual PRNT IC50 [2] [µg/mL] | Bioqual PRNT IC90 [2] [µg/mL] | Duke RBL PRNT IC50 [2] [µg/mL] | Duke RBL PRNT IC90 [2] [µg/mL] | SARS-CoV-2 neutralization IC50 [2] [µg/mL] | SARS-CoV-2 neutralization IC80 [2] [µg/mL] | SARS-CoV-2 neutralization IC90 [2] [µg/mL] | SARS-CoV-2 neutralization Minimal Effective conc. [2] [µg/mL] | IC50 [3] [µg/mL] | live virus neutralization IC50 [4] [µg/mL] | live virus neutralization IC50 [5] [µg/mL] | live virus neutralization IC50 [6] [µg/mL]
DH1042 (antibody) | < 0.2 | 0.371 | 0.156 | 0.625 | 0.073 | 0.625 | 0.071 | 0.269 | 0.578 | 0.28 | < 0.2 | – | – | –
DH1047 (antibody) | 0.078 | 0.567 | – | – | – | – | 0.124 | 0.666 | 1.77 | 1.1 | – | 0.397 | 0.081 | 0.111
